Source: US20220402985A1
Changes are numbered by the printed parent chain. Numbers in names are those of the source. Where “and” joins values, the source holds several entries; their conditions need not be identical. Identical values can stand only once. Each block holds one binder with its values, some of them ahead of it.

How the values were obtained:
[1] = biological target: ErbB4 on neonatal rat cardiomyocytes (rat) (UniProt Q62956); assay: cell-based or functional assay
[2] = biological target: ErbB3 on rat Schwann cells (rat) (UniProt Q62799); assay: cell-based or functional assay
Chain of ErbB3 on rat Schwann cells (rat) (Q62799 20-1339): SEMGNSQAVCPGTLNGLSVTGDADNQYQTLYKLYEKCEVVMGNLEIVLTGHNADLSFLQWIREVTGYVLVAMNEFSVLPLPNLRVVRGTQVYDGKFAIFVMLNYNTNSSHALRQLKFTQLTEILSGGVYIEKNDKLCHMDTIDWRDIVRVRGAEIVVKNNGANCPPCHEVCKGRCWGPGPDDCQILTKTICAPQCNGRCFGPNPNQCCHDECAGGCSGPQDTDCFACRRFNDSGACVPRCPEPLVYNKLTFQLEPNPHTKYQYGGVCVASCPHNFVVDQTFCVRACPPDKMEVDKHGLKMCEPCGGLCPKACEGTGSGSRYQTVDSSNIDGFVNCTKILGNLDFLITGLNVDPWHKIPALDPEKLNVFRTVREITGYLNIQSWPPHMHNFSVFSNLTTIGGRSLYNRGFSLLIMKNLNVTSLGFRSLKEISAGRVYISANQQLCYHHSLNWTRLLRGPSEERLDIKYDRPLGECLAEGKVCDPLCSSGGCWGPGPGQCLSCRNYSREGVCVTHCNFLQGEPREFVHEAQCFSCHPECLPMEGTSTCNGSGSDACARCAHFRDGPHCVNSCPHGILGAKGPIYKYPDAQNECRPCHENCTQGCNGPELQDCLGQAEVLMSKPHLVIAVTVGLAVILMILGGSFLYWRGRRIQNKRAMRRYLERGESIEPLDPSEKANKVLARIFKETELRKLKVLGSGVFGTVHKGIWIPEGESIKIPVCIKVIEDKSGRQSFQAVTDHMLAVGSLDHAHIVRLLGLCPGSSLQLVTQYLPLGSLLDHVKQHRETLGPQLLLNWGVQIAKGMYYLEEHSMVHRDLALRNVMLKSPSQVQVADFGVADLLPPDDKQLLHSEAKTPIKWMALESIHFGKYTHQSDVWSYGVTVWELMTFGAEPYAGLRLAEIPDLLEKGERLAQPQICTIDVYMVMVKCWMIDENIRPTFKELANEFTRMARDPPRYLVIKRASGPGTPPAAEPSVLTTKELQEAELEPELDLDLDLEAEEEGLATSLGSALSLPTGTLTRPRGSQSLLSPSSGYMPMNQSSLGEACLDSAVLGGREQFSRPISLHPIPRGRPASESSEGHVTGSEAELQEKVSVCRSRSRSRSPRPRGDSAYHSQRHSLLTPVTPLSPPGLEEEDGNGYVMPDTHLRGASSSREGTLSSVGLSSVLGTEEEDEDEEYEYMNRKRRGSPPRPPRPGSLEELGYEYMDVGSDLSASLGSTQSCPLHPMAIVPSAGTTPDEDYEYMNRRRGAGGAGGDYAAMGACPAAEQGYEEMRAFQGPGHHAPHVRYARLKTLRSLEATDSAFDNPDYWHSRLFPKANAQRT

Chain of ErbB4 on neonatal rat cardiomyocytes (rat) (Q62956 26-1308): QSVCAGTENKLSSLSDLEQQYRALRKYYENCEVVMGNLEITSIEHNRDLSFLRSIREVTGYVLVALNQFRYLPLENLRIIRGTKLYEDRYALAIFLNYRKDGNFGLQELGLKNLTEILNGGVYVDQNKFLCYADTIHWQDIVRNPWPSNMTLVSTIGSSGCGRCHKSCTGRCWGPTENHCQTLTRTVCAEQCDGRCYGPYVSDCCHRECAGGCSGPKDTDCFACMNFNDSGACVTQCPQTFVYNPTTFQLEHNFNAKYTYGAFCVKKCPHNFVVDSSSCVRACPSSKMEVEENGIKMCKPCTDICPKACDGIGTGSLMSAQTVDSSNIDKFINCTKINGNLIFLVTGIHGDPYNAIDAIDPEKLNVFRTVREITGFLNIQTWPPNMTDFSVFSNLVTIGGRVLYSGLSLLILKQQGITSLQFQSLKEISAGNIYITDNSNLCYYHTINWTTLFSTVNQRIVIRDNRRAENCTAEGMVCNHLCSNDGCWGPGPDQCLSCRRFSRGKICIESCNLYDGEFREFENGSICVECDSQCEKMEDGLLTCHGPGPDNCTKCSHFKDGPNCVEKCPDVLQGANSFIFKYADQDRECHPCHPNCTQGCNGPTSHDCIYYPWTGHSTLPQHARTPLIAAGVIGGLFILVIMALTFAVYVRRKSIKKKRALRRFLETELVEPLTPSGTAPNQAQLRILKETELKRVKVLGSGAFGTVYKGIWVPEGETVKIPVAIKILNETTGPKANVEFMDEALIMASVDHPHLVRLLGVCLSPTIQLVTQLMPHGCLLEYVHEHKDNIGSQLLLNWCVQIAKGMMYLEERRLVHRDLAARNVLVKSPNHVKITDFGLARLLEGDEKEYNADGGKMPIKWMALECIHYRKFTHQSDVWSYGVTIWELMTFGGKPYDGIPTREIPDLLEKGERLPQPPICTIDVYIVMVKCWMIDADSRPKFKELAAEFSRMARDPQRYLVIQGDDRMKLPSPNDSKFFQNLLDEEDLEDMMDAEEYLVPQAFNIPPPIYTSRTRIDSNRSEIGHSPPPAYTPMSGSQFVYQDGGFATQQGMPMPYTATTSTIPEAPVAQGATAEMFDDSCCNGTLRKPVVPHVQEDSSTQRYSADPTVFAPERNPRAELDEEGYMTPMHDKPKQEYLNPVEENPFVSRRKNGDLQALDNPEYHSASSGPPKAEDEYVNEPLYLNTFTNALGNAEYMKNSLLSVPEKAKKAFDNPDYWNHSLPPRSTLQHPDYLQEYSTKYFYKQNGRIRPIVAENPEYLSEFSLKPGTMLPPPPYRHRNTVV

CM % Agonism AVG [1]: 74% | Cardiomyocyte (CM) (ErbB4) Avg EC50 [1]: 2.29 nM | Selectivity SC/CM [1]: > 4370 | Schwann cells (SC) (ErbB3) Avg EC50 [2]: > 10000 nM
B1: huNRG1(S177-Q237)(NRGE1L)::GG::huFcSEFL2 (Pb) (Fc fusion)
chain: SHLVKCGESHKSFCVNGGECYMVEGSSIPSRYLCKCPNEFTGDRCQDDFMASFYKAEELYQGGDKTHTCPPCPAPELLGGPSVFLFPPKPKDTLMISRTPEVTCVVVDVSHEDPEVKFNWYVDGVEVHNAKTKPCEEQYGSTYRCVSVLTVLHQDWLNGKEYKCKVSNKALPAPIEKTISKAKGQPREPQVYTLPPSREEMTKNQVSLTCLVKGFYPSDIAVEWESNGQPENNYKTTPPVLDSDGSFFLYSKLTVDKSRWQQGNVFSCSVMHEALHNHYTQKSLSLSPGK

CM % Agonism AVG [1]: 76% | Cardiomyocyte (CM) (ErbB4) Avg EC50 [1]: 1.48 nM | Selectivity SC/CM [1]: > 6700 | Schwann cells (SC) (ErbB3) Avg EC50 [2]: > 10000 nM
B2: huNRG1(S177-Q237)(NRGE1B)::GG::huFcSEFL2 (Pb) (Fc fusion)
chain: B1 chain with S9N, H10D, D47E

CM % Agonism AVG [1]: 83% | Cardiomyocyte (CM) (ErbB4) Avg EC50 [1]: 0.995 nM | Selectivity SC/CM [1]: > 10000 | Schwann cells (SC) (ErbB3) Avg EC50 [2]: > 10000 nM
B3: huNRG1(S177-Q237)(NRGE1E)::GG::huFcSEFL2 (Pb) (Fc fusion)
chain: B1 chain with S9N, H10D, Y21F, V23I, S26P, I28N, D47N

CM % Agonism AVG [1]: 26% | Cardiomyocyte (CM) (ErbB4) Avg EC50 [1]: 1.73 nM | Selectivity SC/CM [1]: 435 | Schwann cells (SC) (ErbB3) Avg EC50 [2]: 751 nM
B4: huNRG1(S177-Q237)(NRGE1N)::GG::huFcSEFL2 (Pb) (Fc fusion)
chain: B1 chain with S9N, H10D, D48F

CM % Agonism AVG [1]: 67% | Cardiomyocyte (CM) (ErbB4) Avg EC50 [1]: 22.9 nM | Selectivity SC/CM [1]: 437 | Schwann cells (SC) (ErbB3) Avg EC50 [2]: > 10000 nM
B5: huNRG1(S177-Q237)(NRGE1I)::GG::huFcSEFL2 (Pb) (Fc fusion)
chain: B1 chain with S9N, H10D, Y21F, V23I, S26P, I28N

CM % Agonism AVG [1]: 90% | Cardiomyocyte (CM) (ErbB4) Avg EC50 [1]: 0.65 nM | Selectivity SC/CM [1]: > 10000 | Schwann cells (SC) (ErbB3) Avg EC50 [2]: > 10000 nM
B6: huNRG1(S177-Q237)(NRGE1F)::GG::huFcSEFL2 (Pb) (Fc fusion)
chain: B1 chain with G7A, S9N, H10D, D47N

CM % Agonism AVG [1]: 30% | Cardiomyocyte (CM) (ErbB4) Avg EC50 [1]: 25.6 nM | Selectivity SC/CM [1]: 39 | Schwann cells (SC) (ErbB3) Avg EC50 [2]: 1010 nM
B7: huNRG1(S177-Q237)(NRGE1M)::GG::huFcSEFL2 (Pb) (Fc fusion)
chain: B1 chain with S9N, H10D, Y21F, V23I, S26P, I28N, D48F

CM % Agonism AVG [1]: 66% | Cardiomyocyte (CM) (ErbB4) Avg EC50 [1]: 7.54 nM | Selectivity SC/CM [1]: 1320 | Schwann cells (SC) (ErbB3) Avg EC50 [2]: > 10000 nM
B8: huNRG1(S177-Q237)(NRGE1K)::GG::huFcSEFL2 (Pb) (Fc fusion)
chain: B1 chain with G7A, S9K, Y21F, V23I, S26P, I28N

CM % Agonism AVG [1]: 82% | Cardiomyocyte (CM) (ErbB4) Avg EC50 [1]: 0.476 nM and 0.41 nM | Selectivity SC/CM [1]: > 10000 | Schwann cells (SC) (ErbB3) Avg EC50 [2]: > 10000 nM
B9: huNRG1(S177-Q237)(NRGE1C)::GG::huFcSEFL2 (Pb) (Fc fusion)
chain: B1 chain with S9K, Y21F, V23I, S26P, I28N, D47E

CM % Agonism AVG [1]: 68% | Cardiomyocyte (CM) (ErbB4) Avg EC50 [1]: 14.1 nM | Selectivity SC/CM [1]: 710 | Schwann cells (SC) (ErbB3) Avg EC50 [2]: > 10000 nM
B10: huNRG1(S177-Q237)(NRGE1J)::GG::huFcSEFL2 (Pb) (Fc fusion)
chain: B1 chain with S9N, H10D

CM % Agonism AVG [1]: 83% | Cardiomyocyte (CM) (ErbB4) Avg EC50 [1]: 0.303 nM and 0.33 nM | Selectivity SC/CM [1]: > 10000 | Schwann cells (SC) (ErbB3) Avg EC50 [2]: > 10000 nM
B11: huNRG1(S177-Q237)(NRGE1D)::GG::huFcSEFL2 (Pb) (Fc fusion)
chain: B1 chain with D47E

CM % Agonism AVG [1]: 91.6% | Cardiomyocyte (CM) (ErbB4) Avg EC50 [1]: 3.4 nM | Selectivity SC/CM [1]: > 10000
B12: :huNRG1(S177-F229)(NRGE1C)::2X(G4A)G4::huFcSEFL2v131(+) (Fc fusion)
chain: SHLVKCGEKHKSFCVNGGECFMIEGPSNPSRYLCKCPNEFTGDRCQEDFMASFGGGGAGGGGAGGGGDKTHTCPPCPAPELLGGPSVFLFPPKPKDTLMISRTPEVTCVVVDVSHEDPEVKFNWYVDGVEVHNAKTKPCEEQYGSTYRCVSVLTVLHQDWLNGKEYKCKVSNKALPAPIEKTISKAKGQPREPQVYTLPPSREKMTKNQVSLTCLVKGFYPSDIAVEWESNGQPENNYKTTPPVLKSDGSFFLYSKLTVDKSRWQQGNVFSCSVMHEALHNHYTQKSLSLSPGKDKTHTCPPCPAPELLGGPSVFLFPPKPKDTLMISRTPEVTCVVVDVSHEDPEVKFNWYVDGVEVHNAKTKPCEEQYGSTYRCVSVLTVLHQDWLNGKEYKCKVSNKALPAPIEKTISKAKGQPREPQVYTLPPSREEMTENQVSLTCLVEGFYPSDIAVEWESNGQPENNYETTPPVLDSDGSFFLYSDLTVDKSRWQQGNVFSCSVMHEALHNHYTQKSLSLSPGK

CM % Agonism AVG [1]: 94% | Cardiomyocyte (CM) (ErbB4) Avg EC50 [1]: 2.9 nM | Selectivity SC/CM [1]: > 10000
B13: :huNRG1(S177-F229)(NRGE1C)::2X(G4E)G4::huFcSEFL2v131(+) (Fc fusion)
chain: B12 chain with A58E, A63E

CM % Agonism AVG [1]: 91.9% | Cardiomyocyte (CM) (ErbB4) Avg EC50 [1]: 1.9 nM | Selectivity SC/CM [1]: > 10000
B14: :huNRG1(S177-F229)(NRGE1D)::2X(G4E)G4::huFcSEFL2v131(+) (Fc fusion)
chain: B12 chain with K9S, F21Y, I23V, P26S, N28I, A58E, A63E

CM % Agonism AVG [1]: 87.1% | Cardiomyocyte (CM) (ErbB4) Avg EC50 [1]: 2 nM | Selectivity SC/CM [1]: > 10000
B15: :huNRG1(S177-F229)(NRGE1D)::2X(G4A)G4::huFcSEFL2v131(+) (Fc fusion)
chain: B12 chain with K9S, F21Y, I23V, P26S, N28I
